In publication PMC8490876, “Functional Characterization of a L-2-Haloacid Dehalogenase From Zobellia galactanivorans Dsij^T Suggests a Role in Haloacetic Acid Catabolism and a Wide Distribution in Marine Environments” (Frontiers in Microbiology, 2021) one finds stoichiometry N data, which are given here for one substance.

The assay addresses recombinant ZgHAD, L-2-haloacid dehalogenase of Zobellia galactanivorans Dsij^T (Zobellia galactanivorans Dsij^T). In words: SEC; gel filtration on HiLoad 16/600 Superdex 200 pg after nickel affinity purification; oligomeric state of the recombinant protein in solution.

Turning to “recombinant ZgHAD, L-2-haloacid dehalogenase of Zobellia galactanivorans Dsij^T (enzyme)”, the stoichiometry N is 2.

As usually defined, the stoichiometry N is a count of units in the complex or per binding partner.
